Experimental data taken from PMC7103410.

Target: M116, the C-terminal 116 amino acids of SARS-CoV membrane (M) protein (recombinant cytoplasmic region) (SARS-CoV)
Assay: SPR

N peptide 101–115
Kd: 730 nM
